Earlier results as cited in PMC3995210.

Molecular target: dynein intermediate chain (IC) (Drosophila melanogaster) (UniProt Q24246)
Experiment: ITC

Sequence of UniProt Q24246 (Q24246 whole entry): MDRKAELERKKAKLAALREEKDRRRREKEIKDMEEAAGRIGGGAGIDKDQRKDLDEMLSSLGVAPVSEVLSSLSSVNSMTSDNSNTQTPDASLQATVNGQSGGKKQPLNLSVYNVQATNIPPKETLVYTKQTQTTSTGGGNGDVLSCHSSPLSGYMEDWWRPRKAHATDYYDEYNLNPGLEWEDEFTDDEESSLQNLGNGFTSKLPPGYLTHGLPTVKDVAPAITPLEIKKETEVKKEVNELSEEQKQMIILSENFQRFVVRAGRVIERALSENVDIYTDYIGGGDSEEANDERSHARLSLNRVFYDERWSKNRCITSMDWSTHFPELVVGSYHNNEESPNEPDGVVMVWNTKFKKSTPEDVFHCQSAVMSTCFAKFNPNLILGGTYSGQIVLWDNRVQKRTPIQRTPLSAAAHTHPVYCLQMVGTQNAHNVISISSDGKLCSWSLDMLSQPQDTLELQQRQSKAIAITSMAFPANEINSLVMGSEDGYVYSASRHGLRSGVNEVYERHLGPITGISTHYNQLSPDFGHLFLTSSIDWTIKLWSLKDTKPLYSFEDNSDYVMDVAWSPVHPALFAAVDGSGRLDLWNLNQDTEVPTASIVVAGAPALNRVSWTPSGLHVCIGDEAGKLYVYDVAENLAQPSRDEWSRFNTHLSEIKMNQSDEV

Kd: 9.8 µM
Substance: LC8 (from UniProt Q24117)
